# Data taken from doi:10.1101/2024.09.02.610899.
# Biological target: POTRA domains of Toc75 (Toc75-POTRA) (Chlamydomonas reinhardtii)
# Assay: SPR
substance,measurement,value
"Tic22 (recombinant, His-tagged) (natural protein)",Kd,5.22 µM
